Here are results for 5 molecules from article PMC9615034.

Assay [1] concerns the target myeloperoxidase (Homo sapiens) (UniProt P05164). As to conditions: cited from earlier work.
For assay [2] the target is unchanged. As to conditions: cited from earlier work. This is another data set of the same source.
Assay [3] deals with Myeloperoxidase (native) (Homo sapiens) (UniProt P05164). The assay can be described thus: SPR. As to conditions: cited from earlier work.
In assay [4] the target is myeloperoxidase (Homo sapiens) (UniProt P05164). The assay can be described thus: SPR. As to conditions: cited from earlier work.
The target in assay [5] is mature dimeric human leukocyte myeloperoxidase (human) (UniProt P05164).
For assay [6] the target is unchanged. The source holds these as a separate data set.
For assay [7], the target named is biotinylated native human leukocyte myeloperoxidase (human) (UniProt P05164). In words: SPR; Biacore T200; biotinylated native MPO reversibly immobilised on a CAP chip (Biotin CAPture kit) to 500 RU; SPIN variants injected, 2-64 nM (legend: 32-2 nM), single cycle kinetics; RT; PBS, 0.05% Tween 20, 0.1% BSA; two-state model for SPIN-aureus, 1:1 model for SPIN-truncated.

The target of assay [8] is mature dimeric human leukocyte myeloperoxidase (human) (UniProt P05164). The assay can be described thus: ITC; 10 μM MPO in the cell, 150 μM SPIN variant as titrant, 19 injections of 3 μl; 50 mM phosphate buffer pH 7.4 or pH 5; one-site binding model. (In ITC the heat of successive injections is recorded.)

“And” between values parts separate entries of the source, which are not always exact repeats. Identical values can stand only once. Like-named read-outs stand apart in the source and are kept apart here.

The term Kd denotes the concentration at which binding is half-saturated. The koff is the first-order rate constant of dissociation. A low value points to slow dissociation. What is called kon is a measure of how fast the partners come together.

Consider “SPIN-truncated C-terminal domain (from UniProt A0A0H3K703)”, for which the Kd in assay [1] was 10 nM.

For the molecule SPIN-aureus (from UniProt A0A0H3K703), the Kd in assay [2] is 10 nM; in assay [3], 15.9 nM and 9.3 nM; in assay [4] it was 11.8 nM.

Turning to “SPIN-truncated CTD (from UniProt A0A0H3K703)”, the Kd was 29.8 nM in assay [3] and 35.1 nM in assay [4].

B1: SPIN-aureus (Staphylococcal Peroxidase Inhibitor from Staphylococcus aureus) (natural protein)
chain: SQNGLVLHDDANFLEHELSYIDVLLDKNADQATKDNLRSYFADKGLHSIKDIINKAKQDGFDVSKYEHVK
With B1, in assay [5], the shift of the Tm of MPO by DSC, MPO with SPIN-aureus against MPO alone, pH 5 came to 5 °C and the shift of the Tm of MPO by DSC, MPO with SPIN-aureus against MPO alone, pH 7.4 was 1.5 °C. In assay [6], this molecule gave a half maximal inhibition time IT50 of the bromination activity of MPO, first phase (incubation 0-5 min, ∼80% total inhibition) of 2.4 s; a half maximal inhibition time IT50 of the bromination activity of MPO, second phase (incubation 5-120 min) of 24 min; an inhibition of the bromination activity of MPO (MCD assay, pH 5) after preincubation with SPIN-aureus for 0 to 120 min of 99.5%. In assay [7], this molecule returned a Kd of 0.005 nM; a koff1 (two-state model, first step) of 0.005 s⁻¹; a koff2 (two-state model, second step) of 3.5e-06 s⁻¹; a kon1 (two-state model, first step) of 590000 M⁻¹ s⁻¹.

B2: SPIN-truncated (domain or fragment)
chain: LEHELSYIDVLLDKNADQATKDNLRSYFADKGLHSIKDIINKAKQDGFDVSKYEHVK
In assay [8], B2 came in with a Kd of 5.9 nM and a dH of -17.4 kcal/mol. In assay [7], the Kd came to 21 nM, the off-rate (koff) is 0.016 s⁻¹ and the kon stood at 110000 M⁻¹ s⁻¹.
